From article PMC4255369, “Identification of structural determinants on tau protein essential for its pathological function: novel therapeutic target for tau immunotherapy in Alzheimer’s disease” (Alzheimer's Research & Therapy, 2014) come the findings set out here.

The term koff denotes the rate constant with which the complex falls apart. High values mean a short-lived complex, low ones a long-lived complex. The term kon denotes the rate constant with which the complex forms.

What all share (settings): both partners purified
The target of experiment [1] is T1, tau 268–273 (6-mer peptide from MTBR1) (Homo sapiens).
T1 construct: numbers count on: the longest human tau isoform (2N4R); also called HQPGGG; source: synthetic peptide, bought: EZBiolab (>95% purity)
T1 chain: HQPGGG
The experiment is described as follows: ELISA; competitive ELISA; plates coated with 250 ng/well purified tau 151-391/4R; DC8E8 0.6 μg/ml (3.8 nM), 60 μl mixed with 40 μl of 200 μM peptide, 1 hour at 25°C, then 1 hour at 25°C on the plate.

Experiment [2] addresses T2, tau 330–335 (6-mer peptide from MTBR3) (Homo sapiens).
T2 construct: human tau residues 330-335; numbers count on: the longest human tau isoform (2N4R); also called HKPGGG; source: synthetic peptide, bought: EZBiolab (>95% purity)
T2 chain: HKPGGG
The description is as above.

Experiment [3] has as its target T3, tau 299–304 (6-mer peptide from MTBR2, identical to tau 362–367 from MTBR4) (Homo sapiens).
T3 construct: numbers count on: the longest human tau isoform (2N4R); source: synthetic peptide, bought: EZBiolab (>95% purity)
T3 chain: HVPGGG
The experiment is described as above.

Experiment [4] has as its target T4, mis-disordered tau protein 151-391/4R (human, UniProt P10636-8).
T4 construct: numbers count on: the longest human tau isoform (2N4R); source: purified
Put plainly: SPR; Biacore 3000, CM5; DC8E8 captured (230 to 250 RU) by coupled polyclonal anti-mouse antibody; twofold serial dilutions of tau proteins injected at 50 μl/min; 25°C, PBS pH 7.4 with 0.005% P20; fitted to a two-phase reaction model. A general note: SPR reads the build-up and loss of mass on a sensor chip optically.

The target in experiment [5] is T5, mis-disordered tau 151-391/3R (Homo sapiens, UniProt P10636-5).
T5 construct: numbers count on: the longest human tau isoform (2N4R); also called three-repeat mis-disordered truncated tau protein
T5 sequence (P10636 other isoform, or with tags, fused parts or gaps): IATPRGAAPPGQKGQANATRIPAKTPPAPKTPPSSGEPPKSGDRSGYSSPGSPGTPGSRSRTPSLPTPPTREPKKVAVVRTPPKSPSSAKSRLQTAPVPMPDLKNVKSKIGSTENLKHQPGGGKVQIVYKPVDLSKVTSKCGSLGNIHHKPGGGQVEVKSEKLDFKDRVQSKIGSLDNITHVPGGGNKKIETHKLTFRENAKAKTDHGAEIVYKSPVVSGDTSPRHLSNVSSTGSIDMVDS
Described as above.

For experiment [6], the target named is T6, human tau protein isoform 2N3R (Homo sapiens, UniProt P10636-5).
T6 construct: human tau, isoform 2N3R (three repeats, two N-terminal inserts); also called three-repeat tau protein isoform 2N3R; full-length three-repeat tau protein
T6 sequence (P10636 other isoform, or with tags, fused parts or gaps): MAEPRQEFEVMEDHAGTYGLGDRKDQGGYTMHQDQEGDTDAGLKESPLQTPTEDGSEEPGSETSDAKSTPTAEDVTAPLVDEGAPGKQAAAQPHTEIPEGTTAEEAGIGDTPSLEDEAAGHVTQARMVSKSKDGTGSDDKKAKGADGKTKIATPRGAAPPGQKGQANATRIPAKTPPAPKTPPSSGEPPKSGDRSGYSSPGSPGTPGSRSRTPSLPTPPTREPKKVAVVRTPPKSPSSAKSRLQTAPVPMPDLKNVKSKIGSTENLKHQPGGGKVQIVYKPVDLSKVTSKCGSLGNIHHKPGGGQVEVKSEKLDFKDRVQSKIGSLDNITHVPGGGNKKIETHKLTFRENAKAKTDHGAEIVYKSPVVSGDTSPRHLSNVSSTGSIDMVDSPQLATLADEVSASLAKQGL
The experiment is described as above.

In experiment [7] the target is T7, human tau protein isoform 2N4R (Homo sapiens, isoform 2N4R (Tau-F, 441 …, UniProt P10636-8)).
T7 construct: human tau, longest isoform 2N4R (four repeats, two N-terminal inserts); also called full-length tau isoform 2N4R; physiological tau
T7 sequence (P10636 other isoform, or with tags, fused parts or gaps): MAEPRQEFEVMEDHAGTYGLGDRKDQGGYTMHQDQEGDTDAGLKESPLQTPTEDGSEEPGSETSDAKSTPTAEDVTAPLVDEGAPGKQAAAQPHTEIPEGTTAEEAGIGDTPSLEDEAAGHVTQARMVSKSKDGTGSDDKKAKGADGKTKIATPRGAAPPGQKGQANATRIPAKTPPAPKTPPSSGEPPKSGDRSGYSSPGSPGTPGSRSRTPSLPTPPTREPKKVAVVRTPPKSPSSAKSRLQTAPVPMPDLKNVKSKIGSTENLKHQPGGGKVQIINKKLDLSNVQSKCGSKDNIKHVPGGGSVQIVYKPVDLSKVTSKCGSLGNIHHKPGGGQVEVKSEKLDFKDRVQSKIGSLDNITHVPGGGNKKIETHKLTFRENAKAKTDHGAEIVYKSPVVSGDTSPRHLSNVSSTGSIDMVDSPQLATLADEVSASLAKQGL
The experiment is described as above.

T4 sequence (P10636 468-708): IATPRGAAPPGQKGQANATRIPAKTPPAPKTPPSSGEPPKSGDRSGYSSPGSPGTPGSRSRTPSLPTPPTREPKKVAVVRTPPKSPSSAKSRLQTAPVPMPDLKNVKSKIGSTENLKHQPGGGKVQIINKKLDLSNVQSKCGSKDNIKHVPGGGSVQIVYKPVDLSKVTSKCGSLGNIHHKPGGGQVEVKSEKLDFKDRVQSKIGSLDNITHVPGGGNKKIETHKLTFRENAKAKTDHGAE

B1: monoclonal antibody DC8E8 (antibody, V domains shown)
VH: QVQLQQSGPELVKPGTSVKMPCKASGYIFTDYVISWVKQRTGQGLEWIGEIFPRSGSTYYNEKFKGKATLTADKSSNTAYMQLSSVTSEDSAVYFCARDYYGTSFAMDYWGQGTSVTVSS
VL: DIVMSQSPSSLAVSAGEKVTMSCKSSQSLLNSRTRKNYLAWYQQKPGQSPKLLIYWASTRESGVPDRFTGSGSGTDFTLTISSVQAEDLAVYYCKQSFYLRTFGGGTKLDIK
notes: the Fab of DC8E8 is deposited as PDB 4OZ4 (heavy chain of the Fab); the Fab of DC8E8 is deposited as PDB 4OZ4 (light chain); The crystal structure (4OZ4) is of the papain Fab without antigen; also called mAb DC8E8; source: mouse hybridoma (Balb/c spleen cells fused with NS0); hybridoma culture supernatant (indirect ELISA); purified antibody (protein G Sepharose)
For the molecule B1, the binding result in experiment [1], in experiment [2] and in experiment [3] was “binds” in each case. The “fold affinity against full-length tau isoform 2N4R” value in experiment [4] worked out at 7 fold. Further, the koff stood at 0.04 s⁻¹ in experiment [4], 0.08 s⁻¹ in experiment [5], 0.4 s⁻¹ in experiment [6] and 0.04 s⁻¹ in experiment [7]. Besides, the kon in experiment [4] came to 2.9e+06 M⁻¹ s⁻¹; in experiment [5], 150000 M⁻¹ s⁻¹; in experiment [6], 28000 M⁻¹ s⁻¹; in experiment [7], 440000 M⁻¹ s⁻¹. Further, the “fold affinity against full-length tau isoform 2N3R” value in experiment [5] was found to be 25 fold.
